Assays:
[1] = target: full-length human basigin (human); assay: MST; Alexa Fluor 488-labelled full-length basigin held at 0.1 µM; PfRH5 or PfRCR titrated 2 µM to 0.12 nM; 20 mM Tris pH 8.0, 200 mM NaCl, 1 mg/ml salmon sperm DNA, 0.02% DDM; 25 °C
[2] = target: basigin ectodomain (human); assay: MST; Alexa Fluor 488-labelled BSG^ecto held at 0.25 µM; PfRH5 or PfRCR titrated 8 µM to 3.91 nM; 20 mM Tris pH 8.0, 200 mM NaCl, 1 mg/ml salmon sperm DNA, 0.01% Tween-20; 25 °C

What does the source list for PfRH5 (natural protein)?
Kd [1]: 120 nM; Kd [2]: 190 nM

Source: PMC10794152
